Data on 7 molecules can be found in patent publication US20210054097A1.

Holding throughout (test): peptide ELISA
(In general: In an ELISA, binding on a coated surface is turned into a signal by an enzyme label.)

The target of assay [1] is T1, FX activation peptide 12-mer … (human).
T1 sequence (peptide, C-terminally conjugated to biotin): LDPTENPFDLLD

Assay [2] deals with T2, FX activation peptide 12-mer … (human).
T2 sequence (peptide, C-terminally conjugated to biotin): DPTENPFDLLDF
This is another data set of the same source.

In assay [3] the target is T3, FX activation peptide 12-mer … (human).
T3 sequence (peptide, C-terminally conjugated to biotin): LLDFNQTQPERG
The source holds these as a separate data set.

Assay [4] concerns the target T4, FX activation peptide 12-mer … (human).
T4 sequence (peptide, C-terminally conjugated to biotin): NQTQPERGDNNL
The source holds these as a separate data set.

The target of assay [5] is T5, FX activation peptide 12-mer … (human).
T5 sequence (peptide, C-terminally conjugated to biotin): DSITWKPYDAAD
The source holds these as a separate data set.

Assay [6] concerns the target T6, FX activation peptide 12-mer … (human).
T6 sequence (peptide, C-terminally conjugated to biotin): PYDAADLDPTEN
The source holds these as a separate data set.

The target in assay [7] is T7, FX activation peptide 12-mer … (human).
T7 sequence (peptide, C-terminally conjugated to biotin): ITWKPYDAADLD
This is another data set of the same source.

Assay [8] concerns the target T8, FX activation peptide 12-mer … (human).
T8 sequence (peptide, C-terminally conjugated to biotin): PDSITWKPYDAA
The source holds these as a separate data set.

Assay [9] concerns the target T9, FX activation peptide 12-mer … (human).
T9 sequence (peptide, C-terminally conjugated to biotin): PTENPFDLLDFN
This is another data set of the same source.

Assay [10] addresses T10, FX activation peptide 12-mer … (human).
T10 sequence (peptide, C-terminally conjugated to biotin): NPFDLLDFNQTQ
This is another data set of the same source.

The target of assay [11] is T11, FX activation peptide 12-mer … (human).
T11 sequence (peptide, C-terminally conjugated to biotin): FDLLDFNQTQPE
This is another data set of the same source.

For assay [12], the target named is T12, FX activation peptide 12-mer … (human).
T12 sequence (peptide, C-terminally conjugated to biotin): GEAPDSITWKPY
This is another data set of the same source.

The target of assay [13] is T13, FX activation peptide 12-mer … (human).
T13 sequence (peptide, C-terminally conjugated to biotin): FNQTQPERGDNN
The source holds these as a separate data set.

Assay [14] has as its target T14, FX activation peptide 12-mer … (human).
T14 sequence (peptide, C-terminally conjugated to biotin): APDSITWKPYDA
The source holds these as a separate data set.

The target of assay [15] is T15, FX activation peptide 12-mer … (human).
T15 sequence (peptide, C-terminally conjugated to biotin): SVAQATSSSGEA
This is another data set of the same source.

The target of assay [16] is T16, FX activation peptide 12-mer … (human).
T16 sequence (peptide, C-terminally conjugated to biotin): ATSSSGEAPDSI
The source holds these as a separate data set.

For assay [17], the target named is T17, FX activation peptide 12-mer … (human).
T17 sequence (peptide, C-terminally conjugated to biotin): VAQATSSSGEAP
This is another data set of the same source.

Assay [18] has as its target T18, FX activation peptide 12-mer … (human).
T18 sequence (peptide, C-terminally conjugated to biotin): EAPDSITWKPYD
This is another data set of the same source.

Assay [19] addresses T19, FX activation peptide 12-mer … (human).
T19 sequence (peptide, C-terminally conjugated to biotin): TWKPYDAADLDP
The source holds these as a separate data set.

Assay [20] addresses T20, FX activation peptide 12-mer … (human).
T20 sequence (peptide, C-terminally conjugated to biotin): TENPFDLLDFNQ
This is another data set of the same source.

Assay [21] deals with T21, FX activation peptide 12-mer … (human).
T21 sequence (peptide, C-terminally conjugated to biotin): DLLDFNQTQPER
This is another data set of the same source.

The target of assay [22] is T22, FX activation peptide 12-mer … (human).
T22 sequence (peptide, C-terminally conjugated to biotin): SGEAPDSITWKP
The source holds these as a separate data set.

Assay [23] concerns the target T23, FX activation peptide 12-mer … (human).
T23 sequence (peptide, C-terminally conjugated to biotin): SSGEAPDSITWK
The source holds these as a separate data set.

The target in assay [24] is T24, FX activation peptide 12-mer … (human).
T24 sequence (peptide, C-terminally conjugated to biotin): PFDLLDFNQTQP
The source holds these as a separate data set.

The target in assay [25] is T25, FX activation peptide 12-mer … (human).
T25 sequence (peptide, C-terminally conjugated to biotin): YDAADLDPTENP
This is another data set of the same source.

Assay [26] has as its target T26, FX activation peptide 12-mer … (human).
T26 sequence (peptide, C-terminally conjugated to biotin): TSSSGEAPDSIT
The source holds these as a separate data set.

In assay [27] the target is T27, FX activation peptide 12-mer … (human).
T27 sequence (peptide, C-terminally conjugated to biotin): DAADLDPTENPF
The source holds these as a separate data set.

Assay [28] addresses T28, FX activation peptide 12-mer … (human).
T28 sequence (peptide, C-terminally conjugated to biotin): DLDPTENPFDLL
The source holds these as a separate data set.

The target in assay [29] is T29, FX activation peptide 12-mer … (human).
T29 sequence (peptide, C-terminally conjugated to biotin): SITWKPYDAADL
The source holds these as a separate data set.

The target of assay [30] is T30, FX activation peptide 12-mer … (human).
T30 sequence (peptide, C-terminally conjugated to biotin): DFNQTQPERGDN
This is another data set of the same source.

The target in assay [31] is T31, FX activation peptide 12-mer … (human).
T31 sequence (peptide, C-terminally conjugated to biotin): ENPFDLLDFNQT
This is another data set of the same source.

B1: Nb 729C08 (VHH, not shown: small tags and cut ends)
VHH: EVQLVESGGGVVQPGGSLRLSCAASGFTFSDYAMSWVRQAPGKGLEWVSGITGGGRTYYADSVKGRFTISRDNSKNTLYLQMNSLRPEDTALYYCAAAILTRTRRTYDYWGQGTLVTVSS
For B1, the ELISA signal relative to background in assay [1] stood at 1.58; in assay [2], 1.95.

B2: Nb 702C12 (VHH, not shown: small tags and cut ends)
VHH: EVQLVESGGGVVQPGGSLRLSCVASGRTFSRYAMGWFRQAPGKEREFVAAISRRGGSTNYADSVKGRFTISRDNSKNTVYLQMNSLRPEDTALYYCAADYSSGDGYLDYWGQGTLVTVSS
As for B2, the ELISA signal relative to background in [3] is 1.88.

B3: Nb 721E08 (VHH, not shown: small tags and cut ends)
VHH: EVQLVESGGGVVQPGGSLRLSCAASGRTFSTYSMGWFRQAPGKEREFVAAITRRGSRTYYADSVKGRFTISRDNSKNTVYLQMNSLRPEDTALYYCAADRRPADSYLDYWGQGTLVTVSS
B3: the ELISA signal relative to background in [4] came to 2.02; in assay [5] it was 2.18; in [6], 2.05; in assay [7], 2.08; in assay [8] it was 2.4; in assay [9] it was 2.35. Besides, the ELISA signal relative to background in assay [10] came out at 2.28; in assay [11], 3.01; in assay [12], 2.26; in assay [13] it was 2.16; in [14], 2.29; in assay [15], 2.25. The ELISA signal relative to background in [16] came to 2.27; in assay [17], 2.13; in assay [18] it was 2.35; in assay [19], 2.26; in [20], 2.54; in [21], 2.45. In addition, the ELISA signal relative to background in [22] stood at 2.15; in [23], 2.01; in assay [24], 2.5; in assay [3], 2.3; in [25] it was 2.21; in assay [1], 2.29. Further, the ELISA signal relative to background in [26] was 2.2; in [27], 2.3; in assay [28], 2.48; in assay [29], 2.28; in assay [30] it was 2.25; in [31], 2.88. In [2], this molecule returned an ELISA signal relative to background of 2.27.

B4: Nb 701D07 (VHH, not shown: small tags and cut ends)
VHH: EVQLVESGGGVVQPGGSLRLSCAASGGTLSRYAMGWFRQAPGKEREFVAAITRRGSRTYYADSVKGRFTISRDNSKNTVYLQMNSLRPEDTALYYCAADLAPGDYALDYWGQGTLVTVSS
On to B4, for which the ELISA signal relative to background in assay [9] came out at 1.29; in assay [10], 0.96; in assay [20], 1.44; in assay [24], 1.13; in assay [31] it was 1.27; in [2], 1.39.

B5: Nb 701C06 (VHH, not shown: small tags and cut ends)
VHH: EVQLVESGGGVVQPGGSLRLSCAASGRTFSTYAMGWFRQAPGKEREFVAAISRRGGRTYYADSVKGRFTISRDNSKNTVYLQMNSLRPEDTALYYCAADATARDGLLDYWGQGTLVTVSS
Consider B5, for which the ELISA signal relative to background in [9] came to 1.61; in assay [10], 1.29; in assay [11], 1.41; in [20], 1.74; in [24] it was 1.5; in assay [31] it was 1.56. This molecule registered an ELISA signal relative to background in [2] of 1.51.

B6: Nb 729A04 (VHH, not shown: small tags and cut ends)
VHH: EVQLVESGGGVVQPGGSLRLSCAASGFTFSDYAMSWVRQAPGKGLEWVSGITSGGGRTYYADSVKGRFTISRDNSKNTLYLQMNSLRPEDTALYYCAAVRTLGLRGSYDYWGQGTLVTVSS
Turning to B6, the ELISA signal relative to background in assay [11] turned out to be 1.58; in assay [24], 1.41; in assay [1], 1.91.

B7: Nb 730C03 (VHH, not shown: small tags and cut ends)
VHH: EVQLVESGGGVVQPGGSLRLSCVASGFTFSDYAMSWVRQAPGKGLEWVSGITSGSGRTYYADSVKGRFTISRDNSKNTVYLQMNSLRPEDTALYYCAAAILRGYRKTYDYWGQGTLVTVSS
B7: the ELISA signal relative to background in assay [9] was determined as 1.62; in [2], 1.68.
